The numbers were not newly measured in publication PMC3268021, which cites them from elsewhere.

One may read the Kd as a measure of binding affinity in units of concentration. A word on the Ki: it is a dissociation constant, usually derived from enzyme kinetics or from competition with a known ligand.

Read-outs that look alike come from different tables or passages of the source.

Series [1] has as its target TXA2R (agonist-activated) (UniProt P21731).
A further series concerns the target TXA2R (ligand-free) (UniProt P21731).
In series [2] the target is phospholipase C (UniProt P19174).
The target is the same in series [3]. The source holds these as a separate data set.
A further series deals with Calmodulin (UniProt P0DP23).

Chain of UniProt P19174 (P19174 2-1290): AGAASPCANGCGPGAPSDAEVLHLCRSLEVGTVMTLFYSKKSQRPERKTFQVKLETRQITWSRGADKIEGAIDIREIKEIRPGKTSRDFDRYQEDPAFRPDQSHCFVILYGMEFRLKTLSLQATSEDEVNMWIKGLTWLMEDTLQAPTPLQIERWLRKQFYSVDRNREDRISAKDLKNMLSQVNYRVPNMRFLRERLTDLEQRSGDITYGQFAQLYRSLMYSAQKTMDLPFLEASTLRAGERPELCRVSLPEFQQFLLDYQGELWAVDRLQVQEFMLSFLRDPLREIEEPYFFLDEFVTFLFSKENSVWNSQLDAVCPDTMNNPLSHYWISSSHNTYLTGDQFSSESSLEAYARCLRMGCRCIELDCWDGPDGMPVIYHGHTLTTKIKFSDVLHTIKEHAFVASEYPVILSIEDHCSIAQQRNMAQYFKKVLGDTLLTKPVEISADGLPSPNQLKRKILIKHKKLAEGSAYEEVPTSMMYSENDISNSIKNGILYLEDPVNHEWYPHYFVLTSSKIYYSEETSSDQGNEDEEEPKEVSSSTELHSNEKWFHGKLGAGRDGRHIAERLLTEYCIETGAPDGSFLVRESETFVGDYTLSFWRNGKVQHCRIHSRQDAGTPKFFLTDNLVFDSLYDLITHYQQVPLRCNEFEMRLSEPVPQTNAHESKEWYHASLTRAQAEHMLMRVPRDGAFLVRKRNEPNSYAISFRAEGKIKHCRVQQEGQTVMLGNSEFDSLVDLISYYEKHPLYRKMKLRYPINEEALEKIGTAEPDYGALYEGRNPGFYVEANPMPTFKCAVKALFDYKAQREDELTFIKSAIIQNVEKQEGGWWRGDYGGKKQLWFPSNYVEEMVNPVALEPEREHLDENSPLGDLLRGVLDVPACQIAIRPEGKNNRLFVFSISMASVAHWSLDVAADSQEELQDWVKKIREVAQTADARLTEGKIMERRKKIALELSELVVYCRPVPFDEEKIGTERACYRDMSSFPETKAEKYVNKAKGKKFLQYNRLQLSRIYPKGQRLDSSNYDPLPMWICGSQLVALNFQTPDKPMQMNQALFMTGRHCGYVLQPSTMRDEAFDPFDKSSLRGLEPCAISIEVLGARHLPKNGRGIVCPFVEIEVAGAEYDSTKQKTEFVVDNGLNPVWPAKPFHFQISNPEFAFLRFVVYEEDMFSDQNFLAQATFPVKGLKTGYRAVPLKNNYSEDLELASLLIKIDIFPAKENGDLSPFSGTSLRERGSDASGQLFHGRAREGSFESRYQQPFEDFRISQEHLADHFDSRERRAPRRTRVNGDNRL

For “Gαq C-terminal peptide C-terminal 15-mer peptide (from UniProt P50148)”, the Kd in series [1] was 240 µM; in the series with TXA2R (ligand-free), 17 µM. With “PCI-peptide 724-736 724-736 (from UniProt P19174)”, the Ki was 3.5 µM with phospholipase C [2] and 120 µM in the series with phospholipase C [3]. As for “pAC28 peptide of AC1 495-522 (from UniProt P19754)”, in the series with Calmodulin, the Kd is 0.002 µM.
